Target: Echovirus 3 (E3) mature full (F-) particle, genotype HNWY-01 strain (Echovirus 3 (genotype HNWY-01 strain))
Experiment: SPR

B1: monoclonal antibody 6D10 IgG (antibody, V domains shown)
VH: EVQLQQSGPELARPWASVKISCQAFYTFSNYGMQWVKQSPGQGLEWIGPFYPGNADTSYNQKFKGKATLTADKSSSTAYMQFSSLTSEDSAVYYCARVVATTDFDYWGQGTTVTVSS
VL: not shown
With B1 the koff was 5.1e-05 s⁻¹.

— publication PMC9692665 (2022)
